This note sets out measurements from patent US20160002337A1 (ALBERT EINSTEIN COLLEGE OF MEDICINE, published 2016).

Test [1] concerns the target T1, B7x-Ig (human, UniProt Q7Z7D3 25-259; P01857 99-330 = IgG part, limits assumed).
T1 construct: extracellular domain;domain: Fc; Made in Drosophila S2 cells; Used as a control fusion protein; also called B7x-Ig fusion protein
In words: FACS on 3T3 or CT26 transfectants, PE anti-human IgG Fc. As to the method: (§1) Antibodies and flow cytometry. Cells were incubated with Fc blocking reagents and then stained with combinations of the following anti-human antibodies: CD152-PE, CD28-PE, B7-1-PE, B7-2-PE, PD-1-PE, PD-L1-PE, PD-L2-PE, ICOS-PE, ICOSL-PE, B7H4-PE, CD14-FITC, CD19-FITC, CD8a-Percp-Cy5.5, CD4-APC, CD83-APC, streptavidin and isotype controls (eBioscience). Biotinylated anti-hB7-H3 was purchased from R&D. For receptor binding, cells were incubated with HHLA2-Ig, B7x-Ig, or control Ig for 45 min on ice and then stained with PE-anti-human IgG Fc (Jackson Immunoresearch). Samples were acquired on a FACSCalibur, LSRII or LSRII yellow (BD Biosciences), and analyzed with FlowJo (Treestar).

The target in test [2] is T1, B7x-Ig. In words: FACS on 3T3 transfectants, PE anti-human IgG Fc. As to the method:
as §1

Test [3] deals with T2, Fc portion of human IgG1 (Ig control) (human, UniProt P01857-1 99-330 = IgG part, limits assumed).
T2 construct: domain: Fc; Control protein made in Drosophila S2 cells; also called control Ig; human IgG1 Fc tag
In words: FACS on 3T3 transfectants, PE anti-human IgG Fc. As to the method: as §1

T1 sequence (Q7Z7D3 other isoform, or with tags, fused parts or gaps limits assumed): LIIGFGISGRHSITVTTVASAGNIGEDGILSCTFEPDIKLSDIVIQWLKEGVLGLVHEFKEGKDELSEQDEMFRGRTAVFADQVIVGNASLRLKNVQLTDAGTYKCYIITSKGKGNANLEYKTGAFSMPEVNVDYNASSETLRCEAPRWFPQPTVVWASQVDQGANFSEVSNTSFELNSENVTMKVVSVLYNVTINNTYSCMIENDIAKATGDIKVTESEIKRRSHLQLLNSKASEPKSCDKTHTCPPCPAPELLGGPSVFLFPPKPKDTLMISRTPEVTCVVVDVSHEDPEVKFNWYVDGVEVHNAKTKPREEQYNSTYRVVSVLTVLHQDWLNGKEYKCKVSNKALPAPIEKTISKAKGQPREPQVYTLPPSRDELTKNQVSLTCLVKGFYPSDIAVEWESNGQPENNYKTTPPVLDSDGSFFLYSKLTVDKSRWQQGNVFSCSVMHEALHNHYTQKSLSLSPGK

B1: human B7h on transfected cells (ligand, UniProt O75144 19-302, looked up)
chain: DTQEKEVRAMVGSDVELSCACPEGSRFDLNDVYVYWQTSESKTVVTYHIPQNSSLENVDSRYRNRALMSPAGMLRGDFSLRLFNVTPQDEQKFHCLVLSQSLGFQEVLSVEVTLHVAANFSVPVVSAPHSPSQDELTFTCTSINGYPRPNVYWINKTDNSLLDQALQNDTVFLNMRGLYDVVSVLRIARTPSVNIGCCIENVLLQQNLTVGSQTGNDIGERDKITENPVSTGEKNAATWSILAVLCLLVVVAVAIGWVCRDRCLQHSYAGAWAVSPETELTGHV
notes: whole, on cells; also called ICOS-L
Consider B1, for which the binding result with B7x-Ig [1] was “no binding”.

B2: human ICOS on transfected cells (receptor, UniProt Q9Y6W8 21-199, looked up)
chain: EINGSANYEMFIFHNGGVQILCKYPDIVQQFKMQLLKGGQILCDLTKTKGSGNTVSIKSLKFCHSQLSNNSVSFFLYNLDHSHANYYFCNLSIFDPPPFKVTLTGGYLHIYESQLCCQLKFWLPIGCAAFVVVCILGCILICWLTKKKYSSSVHDPNGEYMFMRAVNTAKKSRLTDVTL
notes: whole, on cells
For the molecule B2, the binding result (with B7x-Ig [2]; in test [3]) was “no binding” in each case.

B3: human PD-L2 on transfected cells (ligand, UniProt Q9BQ51 20-273, looked up)
chain: LFTVTVPKELYIIEHGSNVTLECNFDTGSHVNLGAITASLQKVENDTSPHRERATLLEEQLPLGKASFHIPQVQVRDEGQYQCIIIYGVAWDYKYLTLKVKASYRKINTHILKVPETDEVELTCQATGYPLAEVSWPNVSVPANTSHSRTPEGLYQVTSVLRLKPPPGRNFSCVFWNTHVRELTLASIDLQSQMEPRTHPTWLLHIFIPFCIIAFIFIATVIALRKQLCQKLYSSKDTTKRPVTTTKREVNSAI
notes: whole, on cells; also called B7-DC
Take B3: the binding result with B7x-Ig [1] was “no binding”.

B4: human B7-1 on transfected cells (ligand, UniProt P33681 35-288, looked up)
chain: VIHVTKEVKEVATLSCGHNVSVEELAQTRIYWQKEKKMVLTMMSGDMNIWPEYKNRTIFDITNNLSIVILALRPSDEGTYECVVLKYEKDAFKREHLAEVTLSVKADFPTPSISDFEIPTSNIRRIICSTSGGFPEPHLSWLENGEELNAINTTVSQDPETELYAVSSKLDFNMTTNHSFMCLIKYGHLRVNQTFNWNTTKQEHFPDNLLPSWAITLISVNGIFVICCLTYCFAPRCRERRRNERLRRESVRPV
notes: whole, on cells; also called CD80
Regarding B4, the binding result with B7x-Ig [1] was “no binding”.

B5: human B7-2 on transfected cells (ligand, UniProt P42081 24-329, looked up)
chain: APLKIQAYFNETADLPCQFANSQNQSLSELVVFWQDQENLVLNEVYLGKEKFDSVHSKYMGRTSFDSDSWTLRLHNLQIKDKGLYQCIIHHKKPTGMIRIHQMNSELSVLANFSQPEIVPISNITENVYINLTCSSIHGYPEPKKMSVLLRTKNSTIEYDGVMQKSQDNVTELYDVSISLSVSFPDVTSNMTIFCILETDKTRLLSSPFSIELEDPQPPPDHIPWITAVLPTVIICVMVFCLILWKWKKKKRPRNSYKCGTNTMEREESEQTKKREKIHIPERSDEAQRVFKSSKTSSCDKSDTCF
notes: whole, on cells; also called CD86
Take B5: in the test with B7x-Ig [1], the binding result is “no binding”.
